In patent US20210315992A1, “ADJUVANT EFFECT OF THE TLR1/2 AGONIST DIPROVOCIM SYNERGIZES WITH CHECKPOINT-INHIBITING ANTIBODIES TO ELIMINATE DISEASE” (The Board of Regents of the University of Texas System, priority 2018, published 2021):

Tests used:
[1] = system: OT-I CD8 T cells; assay: Cross-priming of CD8 T cells (CD69 on OT-I CD8 T cells co-cultured with DCs of immunized mice); assay type: in vivo, mouse; details: DCs 24 hours after i.m. immunization, 24 hours co-culture
Procedure: C57BL/6J male mice were injected i.m. with 100 μg OVA mixed with vehicle or with 10 mg/kg Diprovocim (n=4 mice per treatment). 24 hours later, DCs from draining lymph nodes and spleen were purified by Mouse Pan Dendritic Cell Isolation Kit (Miltenyi Biotech). CD8 T cells from OT-I transgenic mice were purified by Mouse CD8+ T Cell Isolation Kit (Miltenyi Biotech). 3×10^5 DCs were co-cultured with 3×10^5 OT-I CD8 T cells in RPMI medium containing 10% vol/vol FBS and 1% vol/vol penicillin and streptomycin for 24 hours. Then, cells were collected and stained with anti-mouse CD3-FITC, anti-mouse CD8-BV510, and anti-mouse CD69-PE-CF594 (BioLegend) for 45 minutes. Then, the cells were washed twice with PBS. Stained cells were analyzed with an LSRII instrument and the flow cytometry data were analyzed using FlowJo software.

[2] = system: OVA peptide-pulsed target cells; assay: In vivo CTL killing assay; parameters: species or system mouse; details: i.m. immunization, 100 μg OVA, Diprovocim 10 mg/kg; target cells i.v. day 7, read two days later
[3] = system: B16-OVA melanoma; assay: B16-OVA melanoma, pre-tumor treatment (immunization on day of tumor inoculation); assay type: in vivo, mouse
Procedure: FIG. 4A through FIG. 4J illustrate inhibition of B16-OVA tumor growth by pre- or post-tumor treatment with Diprovocim-adjuvanted tumor vaccination and checkpoint blockade. FIG. 4A provides a schematic of pre- and post-tumor treatment protocols. C57BL/6J mice (n=8 mice per treatment) were injected s.c. with 2×10^5 B16-OVA melanoma cells on day 0. For pre-tumor treatment, mice were immunized i.m. with OVA (100 μg) mixed with vehicle or Diprovocim (10 mg/kg) or alum (2 mg/kg) on the same day prior to tumor injection. Mice received a booster immunization seven days later in which anti-PD-L1 (200 μg) was administered on days 3, 6 and 9 after tumor inoculation by i.p. injection. For post-tumor treatment, initial immunization was on day 3 after tumor inoculation, with a booster seven days later. Anti-PD-L1 (200 μg) was administered on days 3, 6, 9, 12, and 15 after tumor inoculation by i.p. injection. FIG. 4B through FIG. 4F illustrate pre-tumor treatment results. Tumor volume (FIG. 4B and FIG. 4D) and percent mouse survival (survivors/total mice) (FIG. 4C and FIG. 4E). […] FIG. 4G through FIG. 4J illustrate a comparison of pre-tumor (FIG. 4G and FIG. 4H) vs. post-tumor treatment (FIG. 4I and FIG. 4J). Tumor volume (FIG. 4G and FIG. 4I) and percent mouse survival (survivors/total mice) (FIG. 4H and FIG. 4J) are shown. P values for tumor volume analysis apply to the final time point as indicated in graphs and were calculated by Student's t test. P values for survival analysis were calculated by Kaplan-Meier analysis. All results are representative of two independent studies.
C57BL/6J mice (n=8) were injected s.c. with 2×10^5 B16-OVA melanoma cells on day 0. Anti-PD-L1 (200 μg) or mouse IgG2a isotype control antibody was administered on days 3, 6 and 9 after tumor inoculation by i.p. injection. FIG. 8A is a graph of tumor volume versus time and FIG. 8B is a graph showing percent mouse survival (survivors/total mice) versus time. The control values in both plots are shown above those for the anti-PD-L1 values where the two values diverge. […] Results are representative of two independent studies.
B16-OVA cells (B16F10 melanoma cells stably expressing chicken ovalbumin) were grown in DMEM containing 10% vol/vol FBS. A total of 2×10^5 B16-OVA cells in 100 μL PBS were injected s.c. into the right flank of 8-12 week old male C57BL/6J mice to establish tumors (n=8 mice per group). For pretreatment, 10 mg/kg Diprovocim-1 or 2 mg/kg alum with or without OVA (100 μg) was injected i.m. into mice on the same day as tumor inoculation (day 0). Mice received a booster shot seven days after the first immunization. On day 3, 6 and 9, some groups were injected i.p. with 200 μg checkpoint inhibitor (anti-mPD-L1, BioXcell) in 100 μl saline.
Tumors were measured with a digital caliper (Fisher) and the tumor sizes were calculated using the following formula: volume=0.5×length×width^2. Mice were sacrificed when the tumor length or width reached 2 cm.

[4] = system: B16-OVA melanoma; assay: B16-OVA melanoma, post-tumor treatment (immunization day 3 after tumor inoculation); assay type: in vivo, mouse; details: immunization three days after tumor inoculation, plus anti-PD-L1
Procedure: C57BL/6J mice (n=8 mice per treatment) were injected s.c. with 2×10^5 B16-OVA melanoma cells on day 0. For pre-tumor treatment, mice were immunized i.m. with OVA (100 μg) mixed with vehicle or Diprovocim (10 mg/kg) or alum (2 mg/kg) on the same day prior to tumor injection. Mice received a booster immunization seven days later in which anti-PD-L1 (200 μg) was administered on days 3, 6 and 9 after tumor inoculation by i.p. injection. For post-tumor treatment, initial immunization was on day 3 after tumor inoculation, with a booster seven days later. Anti-PD-L1 (200 μg) was administered on days 3, 6, 9, 12, and 15 after tumor inoculation by i.p. injection. […] P values for tumor volume analysis apply to the final time point as indicated in graphs and were calculated by Student's t test. P values for survival analysis were calculated by Kaplan-Meier analysis. All results are representative of two independent studies.
For post-treatment, 10 mg/kg Diprovocim-1 or 2 mg/kg Alum with OVA (100 μg) was injected i.m. into mice on day 3 after tumor inoculation. Mice received a booster shot seven days after the first immunization. On day 3, 6, 9, 12 and 15 after tumor inoculation, mice were also injected i.p. with 200 μg anti-mPD-L1 in 100 μl saline.
Tumors were measured with a digital caliper (Fisher) and the tumor sizes were calculated using the following formula: volume=0.5×length×width^2. […]

[5] = immunization on day of tumor inoculation, plus anti-PD-L1

B1: OVA: EndoFit ovalbumin, Invivogen; immunogen, given mixed with vehicle when without adjuvant (protein, UniProt P01012 2-386, looked up)
Ovalbumin: GSIGAASMEFCFDVFKELKVHHANENIFYCPIAIMSALAMVYLGAKDSTRTQINKVVRFDKLPGFGDSIEAQCGTSVNVHSSLRDILNQITKPNDVYSFSLASRLYAEERYPILPEYLQCVKELYRGGLEPINFQTAADQARELINSWVESQTNGIIRNVLQPSSVDSQTAMVLVNAIVFKGLWEKAFKDEDTQAMPFRVTEQESKPVQMMYQIGLFRVASMASEKMKILELPFASGTMSMLVLLPDEVSGLEQLESIINFEKLTEWTSSNVMEERKIKVYLPRMKMEEKYNLTSVLMAMGITDVFSSSANLSGISSAESLKISQAVHAAHAEINEAGREVVGSAEAGVDAASVSEEFRADHPFLFCIKHIATNAVLFFGRCVSP
- activation (CD69 upregulation) of OT-I CD8 T cells by DCs of immunized mice [1]: failed to induce CD69 expression
- target cells eliminated [2]: about 10%
- average survival time [3, 5]: 24 days
- mice died by 38 days after tumor inoculation [3, 5]: 100%
- tumor growth rates and survival times compared with vehicle alone ([3]; single agent, no anti-PD-L1, i.m. day 0 and booster day 7): similar
- average survival time [4]: 22 days
